Patent US20250313638A1 (KISOJI BIOTECHNOLOGY, published 2025)
Read-outs that look alike come from different tables or passages of the source.

Legend:
[1] = target: T1, recombinant human PD-1 protein (human, UniProt Q15116 25-167); assay: ELISA: recombinant human PD-1 coated on the plate, anti-human-Fc-HRP, chemiluminescence
T1 construct: Bought (Cedarlane Cat. No. HPLC-10377-H08H-100); also called human recombinant PD1 protein; PD-1 recombinant protein
Procedure: (§1) Briefly, recombinant proteins were coated on 96-well plates. Plates were covered and left at 4° C. overnight. The next day, plates were washed once with PBS and blocked with blocking buffer for 1 hour at room temperature. Binding agents were tested at the indicated concentration (357 nM starting concentration, followed by 12 one in four serial dilutions for FIG. 9B lower panel), diluted in the blocking buffer, and incubated for 1 hour at 37° C. After incubation, plates were washed three times with washing buffer. Plates were incubated with anti-human-Fc-HRP (Sigma-Aldrich, Cat. No. AP113P) diluted at 1:5000 for 1 hour at room temperature, then washed three times with PBS-T washing buffer. The signal was developed with SuperSignal™ ELISA Pico Chemiluminescent Substrate (Thermofisher, Cat. No. 37069). The plates were read on a SpectraMax™ i3x Multi-Mode Microplate Reader (Molecular Devices).

[2] = target: T1, recombinant human PD-1 protein; assay: as above; remark: listed apart in the source
Procedure: as §1

[3] = target: PD-1 on the Jurkat effector cells of the PD-1/PD-L1 blockade bioassay (UniProt Q15116 25-288, limits assumed); assay: cell-based or functional assay
BSA = target: T2, BSA; assay: ELISA: BSA coated on the plate, anti-human-Fc-HRP, chemiluminescence
T2 construct: also called control protein (BSA)
Procedure: as §1

[4] = target: T3, recombinant rat PD-1 protein (rat, UniProt D3ZIN8 25-169); assay: ELISA: recombinant rat PD-1 coated on the plate, anti-human-Fc-HRP, chemiluminescence
T3 construct: also called rat recombinant PD1 protein
T3 sequence: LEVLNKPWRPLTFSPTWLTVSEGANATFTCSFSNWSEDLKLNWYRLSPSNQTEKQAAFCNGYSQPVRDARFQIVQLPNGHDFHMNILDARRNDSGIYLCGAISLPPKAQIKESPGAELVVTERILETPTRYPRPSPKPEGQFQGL
Procedure: as §1

[5] = target: T4, recombinant cynomolgus monkey PD-1 protein (cynomolgus monkey, UniProt B0LAJ3 25-170); assay: ELISA: recombinant cynomolgus PD-1 coated on the plate, anti-human-Fc-HRP, chemiluminescence
T4 construct: also called cynomolgus monkey recombinant PD1 protein
Procedure: as §1

[6] = target: T1, recombinant human PD-1 protein; assay: ELISA: recombinant human PD-1 coated on the plate, anti-human-Fc-HRP, chemiluminescence; remark: listed apart in the source
Procedure: as §1

[7] = target: T5, human CD47 on cells (HEK293T cells, human blood cells, primary human T cells) (human, UniProt Q08722 19-323); assay: flow cytometry on primary human T cells
T5 construct: Endogenous CD47 of human cells; For blood cells and T cells it is inferred from the specificity of the anti-CD47 module

[8] = target: T6, recombinant human CD47 protein (human, UniProt Q08722 19-139); assay: ELISA: recombinant human CD47 coated on the plate, chemiluminescence
T6 construct: Bought (Cedarlane Cat. No. 12283-H08H-200); also called human recombinant CD47 protein; CD47 recombinant protein

[9] = target: T7, recombinant cynomolgus CD47 protein (cynomolgus monkey, UniProt A0A5F8AK49 19-139 (rhesus entry)); assay: ELISA: recombinant cynomolgus CD47 coated on the plate, chemiluminescence
T7 construct: also called cynomolgus monkey CD47 recombinant protein

[10] = target: T8, human PD-1 on CHO-PD1 cells (human, UniProt Q15116 25-288); assay: flow cytometry on CHO-PD1 cells, APC anti-human-Fc secondary antibody
T8 construct: also called CHO-PD-1 cell line
T8 sequence (Q15116 25-288 limits assumed): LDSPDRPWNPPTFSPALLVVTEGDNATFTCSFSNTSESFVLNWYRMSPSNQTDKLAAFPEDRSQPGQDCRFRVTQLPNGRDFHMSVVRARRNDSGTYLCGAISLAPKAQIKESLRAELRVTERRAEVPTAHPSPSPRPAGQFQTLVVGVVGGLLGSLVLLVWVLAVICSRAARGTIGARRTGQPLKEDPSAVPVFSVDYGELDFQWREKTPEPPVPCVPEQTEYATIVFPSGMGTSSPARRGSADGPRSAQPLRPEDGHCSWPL

T1 sequence (Q15116 25-167 limits assumed): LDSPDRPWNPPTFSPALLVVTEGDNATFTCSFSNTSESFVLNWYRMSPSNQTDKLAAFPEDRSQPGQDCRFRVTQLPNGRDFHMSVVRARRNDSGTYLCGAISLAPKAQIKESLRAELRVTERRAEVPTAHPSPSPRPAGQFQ
T4 sequence (B0LAJ3 entry or part of it limits assumed): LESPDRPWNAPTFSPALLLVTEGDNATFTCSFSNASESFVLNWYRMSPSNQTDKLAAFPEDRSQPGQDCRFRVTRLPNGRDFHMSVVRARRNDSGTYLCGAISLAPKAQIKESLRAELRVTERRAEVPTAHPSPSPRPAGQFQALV
Chain of PD-1 on the Jurkat effector cells of the PD-1/PD-L1 blockade bioassay (Q15116 25-288 limits assumed): as the sequence (Q15116 25-288 limits assumed) above
T2 sequence (chain, as listed by the source limits assumed): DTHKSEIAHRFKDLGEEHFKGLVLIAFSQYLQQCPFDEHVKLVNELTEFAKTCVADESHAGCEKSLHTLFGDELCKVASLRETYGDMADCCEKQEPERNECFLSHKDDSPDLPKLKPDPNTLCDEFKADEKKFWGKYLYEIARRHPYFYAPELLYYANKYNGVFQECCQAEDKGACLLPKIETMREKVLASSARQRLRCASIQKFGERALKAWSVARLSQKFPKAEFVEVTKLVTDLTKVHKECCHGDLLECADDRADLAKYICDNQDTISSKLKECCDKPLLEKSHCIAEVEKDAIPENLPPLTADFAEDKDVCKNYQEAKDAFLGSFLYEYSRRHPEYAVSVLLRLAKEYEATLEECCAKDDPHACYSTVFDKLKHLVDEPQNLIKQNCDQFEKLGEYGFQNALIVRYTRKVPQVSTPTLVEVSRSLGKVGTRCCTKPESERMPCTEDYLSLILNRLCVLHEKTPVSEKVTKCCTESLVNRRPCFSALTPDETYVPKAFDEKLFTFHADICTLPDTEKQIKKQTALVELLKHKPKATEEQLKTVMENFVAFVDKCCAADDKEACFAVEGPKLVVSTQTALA

B1: KC067 (Fc fusion)
chain: QVQLVESGGGSVQAGGSLRLSCAASGSTDSIEYMTWFRQAPGKAREGVAALYTHTGNTYYTDSVKGRFTISQDKAKNMAYLRMDSVKSEDTAIYTCGATRKYVPVRFALDQSSYDYWGQGTQVTVSSEPKSCDKTHTCPPCPAPELLGGPSVFLFPPKPKDTLMISRTPEVTCVVVDVSHEDPEVKFNWYVDGVEVHNAKTKPREEQYNSTYRVVSVLTVLHQDWLNGKEYKCKVSNKALPAPIEKTISKAKGQPREPQVYTLPPSREQMTKNQVSLTCLVKGFYPSDIAVEWESNGQPENNYKTTPPVLNSDGSFFLYSKLTVDKSRWQQGNVFSCSVMHEALHNHYTQESLSLSPGKAPAPAPAPAPKAQVQLQESGGGLVQPGGSLRLSCAASGFTFSNYGMSWVRQAPGEGLEWVSSIDSTGGTTRYADSVKGRFTISRDNAKNALYLQMNSLKPEDTAVYYCAKDFLSWMPRGQGTQVTVSSGGGGSGGGGSGGGGSQVQLVESGGGSVQAGGSLRLSCAASGSTDSIEYMTWFRQAPGKAREGVAALYTHTGNTYYTDSVKGRFTISQDKAKNMAYLRMDSVKSEDTAIYTCGATRKYVPVRFALDQSSYDYWGQGTQVTVSS
notes: the ranges are mine
B1 was tested, and the “EC50 (read off the curve)” value [1] was ~0.5 nM.

B2: KC036 (Fc fusion)
chain: QVQLVESGGGSVQAGGSLRLSCAASGSTDSIEYMTWFRQAPGKAREGVAALYTHTGNTYYTDSVKGRFTISQDKAKNMAYLRMDSVKSEDTAIYTCGATRKYVPVRFALDQSSYDYWGQGTQVTVSSEPKSCDKTHTCPPCPAPELLGGPSVFLFPPKPKDTLMISRTPEVTCVVVDVSHEDPEVKFNWYVDGVEVHNAKTKPREEQYNSTYRVVSVLTVLHQDWLNGKEYKCKVSNKALPAPIEKTISKAKGQPREPQVYTLPPSREQMTKNQVSLTCLVKGFYPSDIAVEWESNGQPENNYKTTPPVLNSDGSFFLYSKLTVDKSRWQQGNVFSCSVMHEALHNHYTQESLSLSPGKAPAPAPAPAPKAQVQLQESGGGWVQPGGSLRLSCVASGFTFSRSSMSWHRQAPGKERDLVAIISSSGIITHYSDSVKGRFTISRDNAKDTVYLQMNSLKPEDTAVYVCNAVLDDDSGDYWGQGTQVTVSSGGGGSGGGGSGGGGSQVQLVESGGGSVQAGGSLRLSCAASGSTDSIEYMTWFRQAPGKAREGVAALYTHTGNTYYTDSVKGRFTISQDKAKNMAYLRMDSVKSEDTAIYTCGATRKYVPVRFALDQSSYDYWGQGTQVTVSS
notes: May comprise a His-tag or not; also called (HEWL)
With B2 the “EC50 (read off the curve)” value [1] was ~0.2 nM, the “EC50 (read off the curve)” value [2] was ~0.1 nM and the “EC50 (read off the curve), PD-1/PD-L1 blockade NFAT-luciferase reporter” value [3] was ~2 nM. The binding result (BSA) was “no binding (tested: about 700 nM)”, the “EC50 (read off the curve)” value [4] was ~0.1 nM and the “EC50 (read off the curve)” value [5] was ~0.1 nM. The “EC50 (read off the curve)” value [6] was ~0.2 nM.

B3: KC034 (Fc fusion)
VHH-hinge-CH2-CH3-linker-VHH-linker-VHH polypeptide chain: QVQLVESGGGSVQAGGSLRLSCAASGSTDSIEYMTWFRQAPGKAREGVAALYTHTGNTYYTDSVKGRFTISQDKAKNMAYLRMDSVKSEDTAIYTCGATRKYVPVRFALDQSSYDYWGQGTQVTVSSEPKSCDKTHTCPPCPAPELLGGPSVFLFPPKPKDTLMISRTPEVTCVVVDVSHEDPEVKFNWYVDGVEVHNAKTKPREEQYNSTYRVVSVLTVLHQDWLNGKEYKCKVSNKALPAPIEKTISKAKGQPREPQVYTLPPSREQMTKNQVSLTCLVKGFYPSDIAVEWESNGQPENNYKTTPPVLNSDGSFFLYSKLTVDKSRWQQGNVFSCSVMHEALHNHYTQESLSLSPGKAPAPAPAPAPKAQVQLVESGGGSVQAGGSLRLSCAASGSTDSIEYMTWFRQAPGKAREGVAALYTHTGNTYYTDSVKGRFTISQDKAKNMAYLRMDSVKSEDTAIYTCGATRKYVPVRFALDQSSYDYWGQGTQVTVSSGGGGSGGGGSGGGGSEVQLVESGGGLVQPGGSLRLSCAASGDIYKSFDMGWYRQAPGKQRDLVAVIGSRGNNRGRTNYADSVKGRFTISRDGTGNTVYLLMNKLRPEDTAIYYCNTAPLVAGRPWGRGTLVTVSS
notes: also called (HEWL)
B3: no binding (tested: 350 nM) [7].

B4: monoclonal anti-CD47 antibody clone B6H12 (antibody)
chain: EVQLVESGGDLVKPGGSLKLSCAASGFTFSGYGMSWVRQTPDKRLEWVATITSGGTYTYYPDSVKGRFTISRDNAKNTLYLQIDSLKSEDTAIYFCARSLAGNAMDYWGQGTSVTVSSGGGGSGGGGSGGGGSDIVMTQSPATLSVTPGDRVSLSCRASQTISDYLHWYQQKSHESPRLLIKFASQSISGIPSRFSGSGSGSDFTLSINSVEPEDVGVYYCQNGHGFPRTFGGGTKLEIK
For B4, the “EC50 (read off the curve)” value [8] was ~0.5 nM and the “EC50 (read off the curve)” value [9] was ~0.1 nM.

B5: KC035 (Fc fusion)
chain: QVQLVESGGGSVQAGGSLRLSCAASGSTDSIEYMTWFRQAPGKAREGVAALYTHTGNTYYTDSVKGRFTISQDKAKNMAYLRMDSVKSEDTAIYTCGATRKYVPVRFALDQSSYDYWGQGTQVTVSSEPKSCDKTHTCPPCPAPELLGGPSVFLFPPKPKDTLMISRTPEVTCVVVDVSHEDPEVKFNWYVDGVEVHNAKTKPREEQYNSTYRVVSVLTVLHQDWLNGKEYKCKVSNKALPAPIEKTISKAKGQPREPQVYTLPPSREQMTKNQVSLTCLVKGFYPSDIAVEWESNGQPENNYKTTPPVLNSDGSFFLYSKLTVDKSRWQQGNVFSCSVMHEALHNHYTQESLSLSPGKAPAPAPAPAPKAQVQLVESGGGSVQAGGSLRLSCAASGSTDSIEYMTWFRQAPGKAREGVAALYTHTGNTYYTDSVKGRFTISQDKAKNMAYLRMDSVKSEDTAIYTCGATRKYVPVRFALDQSSYDYWGQGTQVTVSSGGGGSGGGGSGGGGSQVQLVESGGGSVQAGGSLRLSCAASGSTDSIEYMTWFRQAPGKAREGVAALYTHTGNTYYTDSVKGRFTISQDKAKNMAYLRMDSVKSEDTAIYTCGATRKYVPVRFALDQSSYDYWGQGTQVTVSS
notes: Three anti-HEWL VHHs on an Fc; May comprise a His-tag or not; also called negative control
B5: no binding [10]; no binding (tested: about 700 nM) [2]; no binding (tested: about 700 nM) [5]. B5: no binding (tested: 350 nM) [7].
